Test results reported in publication PMC9499535, “Distinct architectural requirements for the parS centromeric sequence of the pSM19035 plasmid partition machinery”.

What was measured:
[1] = biological target: ParApSM-His6 (non-fluorescent, wild-type) (Streptococcus pyogenes (plasmid pSM19035)) (UniProt Q57280)
[2] = biological target: ParApSM-His6 (non-fluorescent, wild-type) (Streptococcus pyogenes (plasmid pSM19035)) (UniProt Q57280); remark: listed apart in the source
[3] = biological target: ParApSM-His6 (non-fluorescent, wild-type) (Streptococcus pyogenes (plasmid pSM19035)) (UniProt Q57280); remark: listed apart in the source
[4] = biological target: ParApSM-His6 (non-fluorescent, wild-type) (Streptococcus pyogenes (plasmid pSM19035)) (UniProt Q57280); remark: listed apart in the source
[5] = biological target: ParApSM-GFP-His6 (Streptococcus pyogenes (plasmid pSM19035)) (UniProt Q57280); test: TIRF microscopy on an nsDNA-carpeted flow cell; ParApSM-GFP (1 μM) and ParBpSM-Alexa647 (1 μM) preincubated with 1 mM ATP and 7R-parSpSM (0.5 μM consensus repeats), infused over the nsDNA-carpet for 15 min, then washed with ATP buffer without proteins; room temperature; apparent constants
[6] = biological target: ParApSM^D60E-GFP-His6 (Streptococcus pyogenes (plasmid pSM19035)) (UniProt Q57280); test: TIRF microscopy on an nsDNA-carpeted flow cell; ParApSM^D60E-GFP (1 μM) bound first to the nsDNA-carpet, then washed with 250 nM ParBpSM-Alexa647 plus 4R-parSpSM duplex (125 nM heptad); room temperature; 1 mM ATP
[7] = biological target: ParApSM-GFP-His6 (Streptococcus pyogenes (plasmid pSM19035)) (UniProt Q57280); test: TIRF microscopy on an nsDNA-carpeted flow cell; ParApSM-GFP (1 μM) and ParBpSM-Alexa647 (1 μM) preincubated with 1 mM ATP and 4R-parSpSM (0.5 μM consensus repeats), infused over the nsDNA-carpet for 15 min, then washed with ATP buffer without proteins; room temperature; apparent constants
[8] = biological target: ParApSM^D60E-GFP-His6 (Streptococcus pyogenes (plasmid pSM19035)) (UniProt Q57280); test: TIRF microscopy on an nsDNA-carpeted flow cell; ParApSM^D60E-GFP (1 μM) bound first to the nsDNA-carpet, then washed with 250 nM ParBpSM-Alexa647 plus 36 nM 7R-parSpSM duplex; room temperature; 1 mM ATP; apparent constants
[9] = biological target: ParApSM^D60E-GFP-His6 (Streptococcus pyogenes (plasmid pSM19035)) (UniProt Q57280); test: TIRF microscopy on an nsDNA-carpeted flow cell; ParApSM^D60E-GFP (1 μM) bound first to the nsDNA-carpet, then washed with 250 nM ParBpSM-Alexa647 plus 3R-parSpSM duplex (125 nM heptad); room temperature; 1 mM ATP
[10] = biological target: ParApSM-GFP-His6 (Streptococcus pyogenes (plasmid pSM19035)) (UniProt Q57280); test: TIRF microscopy on an nsDNA-carpeted flow cell; ParApSM-GFP (1 μM) and ParBpSM-Alexa647 (1 μM) preincubated with 1 mM ATP without parSpSM, infused over the nsDNA-carpet for 15 min, then washed with ATP buffer without proteins; room temperature; apparent constants
[11] = biological target: ParApSM-GFP-His6 (Streptococcus pyogenes (plasmid pSM19035)) (UniProt Q57280); test: TIRF microscopy on an nsDNA-carpeted flow cell; ParApSM-GFP (1 μM, 1 mM ATP) bound first to the nsDNA-carpet to ~10% of saturation, then washed with 1 μM ParBpSM-Alexa647 without parSpSM; room temperature; 50 mM Tris-HCl pH 7.4, 100 mM KCl, 2 mM MgCl2, 10% glycerol, 1 mM ATP; apparent constants
[12] = biological target: ParApSM-GFP-His6 (Streptococcus pyogenes (plasmid pSM19035)) (UniProt Q57280); test: TIRF microscopy on an nsDNA-carpeted flow cell; ParApSM-GFP (1 μM) and ParBpSM-Alexa647 (1 μM) preincubated with 1 mM ATP and 3R-parSpSM (0.5 μM consensus repeats), infused over the nsDNA-carpet for 15 min, then washed with ATP buffer without proteins; room temperature; apparent constants
[13] = biological target: ParApSM-GFP-His6 (Streptococcus pyogenes (plasmid pSM19035)) (UniProt Q57280); test: TIRF microscopy on an nsDNA-carpeted flow cell; ParApSM-GFP bound first to the nsDNA-carpet to ~10% of saturation, then washed with 1 μM ParBpSM-Alexa647 plus 7R-parSpSM duplex; room temperature; 1 mM ATP; apparent constants
[14] = biological target: ParApSM-GFP-His6 (Streptococcus pyogenes (plasmid pSM19035)) (UniProt Q57280); test: TIRF microscopy on an nsDNA-carpeted flow cell; ParApSM-GFP bound first to the nsDNA-carpet to ~10% of saturation, then washed with 1 μM ParBpSM-Alexa647 plus 166 nM 3R-parSpSM duplex; room temperature; 1 mM ATP; apparent constants
[15] = biological target: ParApSM-GFP-His6 (Streptococcus pyogenes (plasmid pSM19035)) (UniProt Q57280); test: TIRF microscopy on an nsDNA-carpeted flow cell; ParApSM-GFP bound first to the nsDNA-carpet to ~10% of saturation, then washed with 1 μM ParBpSM-Alexa647 plus 125 nM 4R-parSpSM duplex; room temperature; 1 mM ATP; apparent constants
[16] = biological target: T1, ParB_pSM19035 (ParBpSM, Omega) (plasmid pSM19035, UniProt Q57468 1-71); test: EMSA; 2 mM Mg2+; EMSA: 50 mM Tris-HCl pH 7.4, 100 mM KCl, 2 mM MgCl2, 1 mM DTT, room temperature 15 min, 0.05 nM 32P-DNA, 4-12% PAGE. TIRF binding to the salmon sperm DNA carpet (undefined sequence pool) and ATPase assays not listed; settings: protein: recombinant; tags: none stated; chain copies: 2; label: 32P; blunt
T1 sequence: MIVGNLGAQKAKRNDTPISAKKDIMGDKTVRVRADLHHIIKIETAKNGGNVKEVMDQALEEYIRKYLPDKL

B1: ParBpSM wild-type (natural protein)
chain: T1 sequence
- steady-state ParApSM ATPase turnover with 8 μM ParBpSM, scrambled-sequence duplex and nsDNA (pBR322), 37°C [1]: 2.4 h^–1
- steady-state ParApSM ATPase turnover with ParBpSM, 7R-parSpSM duplex and nsDNA (pBR322), 37°C [1]: 20.5 h^–1
- ParBpSM concentration for half-activation of the ParApSM ATPase at high 7R-parSpSM concentration, with nsDNA [2]: 650 nM
- ParBpSM concentration at which the ParApSM ATPase stimulation saturates, with parSpSM DNA of 1-3 repeats and nsDNA [3]: 2 µM
- steady-state ParApSM ATPase turnover with ParBpSM, 3R-1nc-3R-parSpSM duplex and nsDNA, 37°C [4]: 8.3 h^–1

B2: ParBpSM-Alexa647 (ParBpSM-GCE, 1% labeled) (natural protein)
chain: T1 sequence
modifications: Alexa647 maleimide on the added cysteine (73C); 1% of the protein labelled
- ParBpSM/ParApSM ratio accumulated on the nsDNA-carpet (ParBpSM/ParApSM) [5]: 1.2
- koff-fast-B (~70%) [5]: 1.1 min^–1
- koff-slow-B [5]: 0.13 min^–1
- ParBpSM/ParApSM ratio on the nsDNA-carpet at the initial ParBpSM overshoot peak (ParBpSM/ParApSM) [6]: 1.3
- ParBpSM/ParApSM ratio on the nsDNA-carpet at the end of 15 min of infusion (ParBpSM/ParApSM) [7]: 0.75
- ParBpSM/ParApSM ratio on the nsDNA-carpet within 1 min of washing (ParBpSM/ParApSM) [7]: 0.5
- koff-fast-B (66%) [7]: 1.9 min^–1
- koff-slow-B [7]: 0.23 min^–1
- ParBpSM/ParApSM ratio on the nsDNA-carpet at the initial ParBpSM overshoot peak (ParBpSM/ParApSM) [8]: 1.75
- apparent koff of ParBpSM from the ParApSM^D60E-bound nsDNA-carpet after its peak (ParBpSM and 7R-parSpSM in the wash) [8]: 0.036 min^–1
- ParBpSM/ParApSM ratio on the nsDNA-carpet at the initial ParBpSM overshoot peak (ParBpSM/ParApSM) [9]: 0.6
- ParBpSM density on the nsDNA-carpet relative to ParApSM after 15 min of infusion (ParBpSM/ParApSM) [10]: 0.67
- koff of the fast-dissociating majority (~75%) of ParBpSM [10]: 7 min^–1
- ParBpSM/ParApSM ratio on the nsDNA-carpet after several min of washing (ParBpSM/ParApSM) [11]: 1
- peak density on the ParApSM-bound nsDNA-carpet [11]: 3000 dimers/μm^2
- plateau density on the ParApSM-bound nsDNA-carpet [11]: 2000 dimers/μm^2
- ParBpSM density on the nsDNA-carpet relative to ParApSM after 15 min of infusion (ParBpSM/ParApSM) [12]: 0.67
- koff of the fast-dissociating majority (~75%) of ParBpSM [12]: 4 min^–1
- ParBpSM density on the nsDNA-carpet relative to carpet-bound ParApSM [13]: 2 fold
- ParBpSM/ParApSM molar ratio on the nsDNA-carpet at the start of the dissociation burst (ParBpSM/ParApSM) [13]: 2.8
- apparent koff of ParBpSM from the ParApSM-bound nsDNA-carpet after its peak (ParBpSM and 7R-parSpSM in the wash) [13]: 2.4 min^–1
- ParBpSM/ParApSM ratio on the nsDNA-carpet (ParBpSM/ParApSM) [14]: 1.3
- apparent koff-fast (~24%) of ParBpSM from the ParApSM-bound nsDNA-carpet (ParBpSM and 3R-parSpSM in the wash) [14]: 1.4 min^–1
- apparent koff-slow of ParBpSM from the ParApSM-bound nsDNA-carpet (ParBpSM and 3R-parSpSM in the wash) [14]: 0.05 min^–1
- ParBpSM/ParApSM molar ratio on the nsDNA-carpet at the start of the dissociation burst (ParBpSM/ParApSM) [15]: 1.7
- apparent koff of ParBpSM from the ParApSM-bound nsDNA-carpet after its peak (ParBpSM and 4R-parSpSM in the wash) [15]: 3.9 min^–1

B3: scrambled 55 bp (nsDNA) (dsDNA)
DNA 1: GGGATCAAACACTTGATAGACAAGTCTTTGACCTAATTGTGAAAATTATGAAGGG
DNA 2: CCCTTCATAATTTTCACAATTAGGTCAAAGACTTGTCTATCAAGTGTTTGATCCC
- Kd [16]: ~1 µM
